Data reported in patent US20220306758A1 (Regeneron, published 2022).

T1: human BCMA-MMH (extracellular domain of human BCMA with C-terminal myc-myc-hexahistidine tag) (human)
T1 construct: Monomeric antigen; the entry holds the ectodomain and the myc-myc-His tag; also called hBCMA.mmh; hBCMA.mmH
T1 chain: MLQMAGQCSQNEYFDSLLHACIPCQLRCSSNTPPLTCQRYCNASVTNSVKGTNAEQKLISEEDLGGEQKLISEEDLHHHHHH

T2: mouse BCMA-MFC (BCMA with C-terminal mFc tag) (mouse)
T2 construct: Tested at 30 nM only
T2 chain: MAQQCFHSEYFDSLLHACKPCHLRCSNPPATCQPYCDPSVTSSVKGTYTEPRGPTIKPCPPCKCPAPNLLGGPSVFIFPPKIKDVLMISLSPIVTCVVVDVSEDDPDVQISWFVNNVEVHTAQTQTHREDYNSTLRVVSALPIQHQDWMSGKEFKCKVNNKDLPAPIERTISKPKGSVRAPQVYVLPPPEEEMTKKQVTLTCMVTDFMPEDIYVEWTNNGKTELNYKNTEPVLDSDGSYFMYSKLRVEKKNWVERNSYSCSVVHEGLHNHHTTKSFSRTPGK

T3: human BCMA on cells (endogenous, on multiple myeloma and lymphoma cell lines) (human, UniProt Q02223 1-184)
T3 sequence: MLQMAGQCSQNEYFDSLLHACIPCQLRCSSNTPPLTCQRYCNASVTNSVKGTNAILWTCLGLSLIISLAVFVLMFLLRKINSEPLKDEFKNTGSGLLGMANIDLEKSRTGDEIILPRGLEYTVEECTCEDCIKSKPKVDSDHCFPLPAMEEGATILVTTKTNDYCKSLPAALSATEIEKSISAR


Legend:
[1] = target: T4, human CD3 on Jurkat cells and primary human CD8+ T cells (human, UniProt P07766 23-207; P04234 22-171; P20963 22-164; P09693 23-182); experiment: flow cytometry on primary human CD8+ T cells, n=1
T4 construct: Endogenous CD3 complex on cells; also called hCD3; Jurkat-hCD3
T4 sequence (P07766 23-207 limits assumed, chain 1 of 4): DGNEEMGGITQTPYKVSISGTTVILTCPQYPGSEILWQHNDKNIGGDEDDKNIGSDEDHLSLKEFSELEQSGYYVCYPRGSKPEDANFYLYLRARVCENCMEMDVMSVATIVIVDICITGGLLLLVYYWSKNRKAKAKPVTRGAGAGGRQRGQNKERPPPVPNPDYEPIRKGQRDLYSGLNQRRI
T4 sequence (P04234 22-171 limits assumed, chain 2 of 4): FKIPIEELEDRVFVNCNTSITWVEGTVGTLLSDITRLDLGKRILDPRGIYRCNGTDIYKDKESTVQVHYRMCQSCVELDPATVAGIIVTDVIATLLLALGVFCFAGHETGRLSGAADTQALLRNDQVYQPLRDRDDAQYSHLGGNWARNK
T4 sequence (P20963 22-164 limits assumed, chain 3 of 4): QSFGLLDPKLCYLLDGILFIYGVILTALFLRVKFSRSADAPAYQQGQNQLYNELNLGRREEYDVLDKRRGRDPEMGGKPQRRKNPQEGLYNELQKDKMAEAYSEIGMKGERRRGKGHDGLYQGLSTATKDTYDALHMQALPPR
T4 sequence (P09693 23-182 limits assumed, chain 4 of 4): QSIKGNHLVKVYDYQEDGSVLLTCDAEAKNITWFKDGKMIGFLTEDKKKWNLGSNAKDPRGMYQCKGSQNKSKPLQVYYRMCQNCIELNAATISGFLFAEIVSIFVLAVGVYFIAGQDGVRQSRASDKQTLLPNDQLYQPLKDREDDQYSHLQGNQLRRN
Procedure: Flow cytometric analysis was utilized to determine binding of BCMA×CD3 bispecific antibodies to human and cynomolgus CD3 (Jurkat cells, mfCD3 engineered Jurkat cells, primary human CD8+ and cynomolgus CD8+ T cells). Briefly, 1e05 cells/well were incubated in the presence of FACS wash with block (PBS+1% filtered FBS+5% mouse serum) with a serial dilution of BCMA×CD3 and control antibodies for 30 minutes on ice. After incubation, the cells were washed twice with cold FACS wash (PBS+1% filtered FBS) and bound antibody was detected by incubating with Alexa647-conjugated anti-human secondary antibody on ice for an additional 30 minutes. Wells containing no antibody or secondary only were used as a control. For the detection of monkey and human T cells, a cocktail of human and cynomolgus cross-reactive antibodies to CD4, CD8 and CD16 was added to the anti-human secondary. After incubation, cells were washed, re-suspended in 200 μL cold PBS containing 1% filtered FBS and analyzed by flow cytometry on a BD FACS Canto II. Cells were gated by FSC-H by FSC-A to select singlet events, followed by side and forward scatters to select for live events. For monkey T cells, additional gating on CD8+/CD16− cells was performed.
EC50 values for FACS binding were calculated using 4-parameter non-linear regression analysis in Prism software.

[2] = target: T5, monkey BCMA-MMH (monkey BCMA with C-terminal myc-myc-hexahistidine tag) (monkey); experiment: SPR, Biacore, mAb captured by anti-hFc, 25 C
T5 construct: The words 'extracellular domain' stand before human BCMA in the sentence and are read as applying to the monkey construct too; also called mfBCMA.mmh
T5 sequence (chain, as listed by the source limits assumed): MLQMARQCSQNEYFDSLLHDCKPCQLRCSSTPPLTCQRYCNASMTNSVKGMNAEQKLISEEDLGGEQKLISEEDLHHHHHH
Procedure: (§1) The CM5 Biacore sensor surface was derivatized by amine coupling with a monoclonal mouse anti-human Fc antibody (GE, #BR-1008-39) to capture purified anti-BCMA mAbs and anti-BCMA×anti-CD3 bispecific mAbs. All Biacore binding studies were performed in a buffer composed of 0.01M HEPES pH 7.4, 0.15M NaCl, 3 mM EDTA, 0.05% v/v Surfactant P20 (HBS-ET running buffer). […] Antigen samples were then injected over the anti-BCMA and anti-BCMA×anti-CD3 bispecific mAbs captured surfaces at a flow rate of 30 μL/minute. Antibody-reagent association was monitored for 5 minutes while dissociation in HBS-ET running buffer was monitored for 10 minutes. All of the binding kinetics experiments were performed at 25° C. Kinetic association (kₐ) and dissociation (kd) rate constants were determined by fitting the real-time sensorgrams to a 1:1 binding model using Scrubber 2.0c curve fitting software. Binding dissociation equilibrium constants (KD) and dissociative half-lives (t½) were calculated from the kinetic rate constants as: […]

[3] = target: T1, human BCMA-MMH (extracellular domain of …); experiment: SPR, Biacore, mAb captured by anti-hFc, 25 C
Procedure: as §1

[4] = target: T2, mouse BCMA-MFC (BCMA with C-terminal …); experiment: SPR, Biacore, mAb captured by anti-hFc, 25 C
Procedure: as §1

[5] = target: T6, monkey BCMA-MFC (monkey BCMA with C-terminal mFc tag) (monkey); experiment: SPR, Biacore, mAb captured by anti-hFc, 25 C
T6 construct: also called mfBCMA.mFc
T6 sequence (chain, as listed by the source limits assumed): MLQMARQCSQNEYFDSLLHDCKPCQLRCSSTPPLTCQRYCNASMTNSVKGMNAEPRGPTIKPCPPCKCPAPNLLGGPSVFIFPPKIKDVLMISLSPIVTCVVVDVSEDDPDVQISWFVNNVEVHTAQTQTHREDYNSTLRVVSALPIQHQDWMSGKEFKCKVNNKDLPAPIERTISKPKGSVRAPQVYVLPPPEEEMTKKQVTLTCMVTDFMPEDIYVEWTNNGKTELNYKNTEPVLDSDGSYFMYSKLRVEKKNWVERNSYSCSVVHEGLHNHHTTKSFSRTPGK
Procedure: as §1

[6] = target: T3, human BCMA on cells (endogenous, on …); experiment: cell-based or functional assay
[7] = target: T3, human BCMA on cells (endogenous, on …); experiment: cell-based or functional assay; remark: listed apart in the source
[8] = target: T3, human BCMA on cells (endogenous, on …); experiment: cell-based or functional assay; remark: listed apart in the source
[9] = target: T3, human BCMA on cells (endogenous, on …); experiment: cell-based or functional assay; remark: listed apart in the source

Row | Binder | EC50 [1] [nM] | 90 nM mfBCMA.mmh Bind (RU) [2] [RU] | Kd [2] [nM] | koff [2] [s⁻¹] | kon [2] [M⁻¹ s⁻¹] | t½ [2] [min] | 90 nM hBCMA.mmh Bind (RU) [3] [RU] | Kd [3] [nM] | koff [3] [s⁻¹] | kon [3] [M⁻¹ s⁻¹] | t½ [3] [min] | 30 nM mfBCMA.mFc Bind (RU) (mouse BCMA-MFC by the table's title) [4] | binding result [4] | 30 nM mfBCMA.mFc Bind (RU) [5] [RU] | Kd [5] [nM] | koff [5] [s⁻¹] | kon [5] [M⁻¹ s⁻¹] | t½ [5] [min] | median EC50 of % Survival, Molp8 target cells, human effector cells (FACS cytotoxicity) [6] [nM] | median EC50 of % Survival, RPMI8226 target cells, human effector cells (FACS cytotoxicity) [6] [pM] | further results
1 | REGN5458 (bsAb25441D), anti-BCMA x anti-CD3 bispecific antibody (bispecific antibody, V domains shown, Two different heavy chains paired with a common light chain; human Fc (captured by anti-human Fc in SPR); also called bsAb25441D9; mAb25441D) VH 1: EVQLVESGGGLVQPGGSLRLSCAASGFTFSNFWMTWVRQAPGKGLEWVANMNQDGSEKYYVDSVKGRFTISRDNAKSSLYLQMNSLRAEDTAVYYCARDREYCISTSCYDDFDYWGQGTLVTVSS VH 2: EVQLVESGGGLVQPGRSLRLSCAASGFTFDDYSMHWVRQAPGKGLEWVSGISWNSGSKGYADSVKGRFTISRDNAKNSLYLQMNSLRAEDTALYYCAKYGSGYGKFYHYGLDVWGQGTTVTVSS VL: not shown | 32 | 14.8 | 49.9 | 0.00909 | 182000 | 1.3 | 19.9 | 1.06 | 0.000874 | 827000 | 13.2 | 2.7 | no binding (tested: 30 nM) | 108 | 0.167 | 8.8e-05 | 528000 | 131 | 0.707 | 34.5 | median EC50 of % T activation (CD25 on CD8+ T cells), Molp8 target cells, human effector cells [6]: 1.1 nM; median EC50 of % T activation (CD25 on CD8+ T cells), RPMI8226 target cells, human effector cells [6]: 64.9 pM; EC50 of NFAT-luciferase activity, Jurkat/NFATLuc reporter cells with MOLP-8 cells [7]: 1.4 nM; EC50 of NFAT-luciferase activity, Jurkat/NFATLuc reporter cells with RPMI-8226 cells [7]: 0.61 nM; EC50 of NFAT-luciferase activity, Jurkat/NFATLuc reporter cells with Raji cells [7]: 1.6 nM; median EC50 of % Survival, H929 target cells, cynomolgus effector cells (FACS cytotoxicity) [8]: 23.4 pM; median EC50 of % T activation, H929 target cells, cynomolgus effector cells [8]: 68.3 pM; median EC50 of % Survival, H929 target cells, human effector cells (FACS cytotoxicity) [9]: 103 pM; median EC50 of % Survival, MM1S target cells, human effector cells (FACS cytotoxicity) [9]: 64.6 pM; median EC50 of % Survival, U266 target cells, human effector cells (FACS cytotoxicity) [9]: 328 pM; median EC50 of % T activation (CD25 on CD8+ T cells), H929 target cells, human effector cells [9]: 211 pM; median EC50 of % T activation (CD25 on CD8+ T cells), MM1S target cells, human effector cells [9]: 70.6 pM; median EC50 of % T activation (CD25 on CD8+ T cells), U266 target cells, human effector cells [9]: 107 pM
2 | REGN5459 (bsAb25442D), anti-BCMA x anti-CD3 bispecific antibody (bispecific antibody, V domains shown, also called mAb25442D; mAb25442D-A647) VH 1: EVQLVESGGGLVQPGGSLRLSCAASGFTFSNFWMTWVRQAPGKGLEWVANMNQDGSEKYYVDSVKGRFTISRDNAKSSLYLQMNSLRAEDTAVYYCARDREYCISTSCYDDFDYWGQGTLVTVSS VH 2: EVQLVESGGGLVQPGRSLRLSCAASGFTFDDYSMHWVRQAPGKGLEWVSGISWNSGSIGYADSVKGRFTISRDNAKNSLYLQMNSLRAEDTALYYCAKYGSGYGKFYYYGMDVWGQGTTVTVSS VL: not shown | 4710 | 12.7 | 38.8 | 0.00864 | 223000 | 1.3 | 17 | 1.38 | 0.00101 | 730000 | 11.5 | 2.4 | no binding (tested: 30 nM) | 97 | 0.148 | 7.15e-05 | 482000 | 162 | 1.36 | 106 | median EC50 of % T activation (CD25 on CD8+ T cells), Molp8 target cells, human effector cells [6]: 6.47 nM; median EC50 of % T activation (CD25 on CD8+ T cells), RPMI8226 target cells, human effector cells [6]: 750 pM; EC50 of NFAT-luciferase activity, Jurkat/NFATLuc reporter cells with MOLP-8 cells [7]: 11 nM; EC50 of NFAT-luciferase activity, Jurkat/NFATLuc reporter cells with RPMI-8226 cells [7]: 2.6 nM; EC50 of NFAT-luciferase activity, Jurkat/NFATLuc reporter cells with Raji cells [7]: 7.4 nM; median EC50 of % Survival, H929 target cells, cynomolgus effector cells (FACS cytotoxicity) [8]: 69.2 pM; median EC50 of % T activation, H929 target cells, cynomolgus effector cells [8]: 158 pM; median EC50 of % Survival, H929 target cells, human effector cells (FACS cytotoxicity) [9]: 301 pM; median EC50 of % Survival, MM1S target cells, human effector cells (FACS cytotoxicity) [9]: 288 pM; median EC50 of % Survival, U266 target cells, human effector cells (FACS cytotoxicity) [9]: 1660 pM; median EC50 of % T activation (CD25 on CD8+ T cells), H929 target cells, human effector cells [9]: 300 pM; median EC50 of % T activation (CD25 on CD8+ T cells), MM1S target cells, human effector cells [9]: 458 pM; median EC50 of % T activation (CD25 on CD8+ T cells), U266 target cells, human effector cells [9]: 469 pM
